Test results: article PMC6791878, “Evaluation of integrin αvβ6 cystine knot PET tracers to detect cancer and idiopathic pulmonary fibrosis” (Nature Communications, 2019)

Legend:
Assay in all cases: flow cytometry on cells; equilibrium titration: 100 nM to 300 pM recombinant integrin αvβ6 incubated with 10^5 yeast cells displaying the knottin plus 10^6 un-induced yeast cells; integrin binding buffer (25 mM Tris pH 7.4, 150 mM NaCl, 2 mM CaCl2, 1 mM MgCl2, 1 mM MnCl2, 0.1% BSA); fluorescein anti-αv antibody, binding normalised to cMyc expression
[1] = target: R01 cystine knot peptide displayed on the yeast surface
[2] = target: R01-MG cystine knot peptide displayed on the yeast surface
[3] = target: R01-MR cystine knot peptide displayed on the yeast surface

Kd [1]: 1 nM
Kd [2]: 1.24 nM
Kd [3]: 1 nM
Substance: Recombinant human integrin αvβ6 (from UniProt P06756 31-1048; P18564 22-709) (complex)
